Measured values as given in patent US20040077535A1 (Takeda / Millennium, published 2004).

Tests used:
[1] = molecular target: T1, G protein-coupled receptor protein ZAQ (human, UniProt Q8TCW9 1-393); test: cell-based or functional assay
[2] = molecular target: T2, human type I5E receptor protein (human, UniProt Q8NFJ6 1-384); test: displacement of 125I-MIT1 from I5E-4 CHO cell membrane fraction, glass fiber filter binding assay
T2 construct: Stably expressed in CHO/dhfr- cells (clone I5E-4); Whole cells in the FLIPR assays; also called ISE receptor; I5E-4 cell

[3] = molecular target: T1, G protein-coupled receptor protein ZAQ; test: displacement of 125I-MIT1 from ZAQC-B1 CHO cell membrane fraction, glass fiber filter binding assay

T1 sequence (Q8TCW9 whole entry): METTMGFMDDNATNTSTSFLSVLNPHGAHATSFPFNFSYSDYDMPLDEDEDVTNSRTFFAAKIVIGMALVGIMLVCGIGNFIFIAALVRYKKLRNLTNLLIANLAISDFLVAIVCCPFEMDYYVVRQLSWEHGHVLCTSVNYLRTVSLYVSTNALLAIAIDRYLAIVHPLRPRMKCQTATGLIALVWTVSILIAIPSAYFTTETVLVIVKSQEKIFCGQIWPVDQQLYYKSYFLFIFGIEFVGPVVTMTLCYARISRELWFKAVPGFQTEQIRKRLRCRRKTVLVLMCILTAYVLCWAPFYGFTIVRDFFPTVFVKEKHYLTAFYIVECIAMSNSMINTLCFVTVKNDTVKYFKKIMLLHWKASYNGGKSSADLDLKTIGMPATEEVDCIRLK
T2 sequence (Q8NFJ6 whole entry): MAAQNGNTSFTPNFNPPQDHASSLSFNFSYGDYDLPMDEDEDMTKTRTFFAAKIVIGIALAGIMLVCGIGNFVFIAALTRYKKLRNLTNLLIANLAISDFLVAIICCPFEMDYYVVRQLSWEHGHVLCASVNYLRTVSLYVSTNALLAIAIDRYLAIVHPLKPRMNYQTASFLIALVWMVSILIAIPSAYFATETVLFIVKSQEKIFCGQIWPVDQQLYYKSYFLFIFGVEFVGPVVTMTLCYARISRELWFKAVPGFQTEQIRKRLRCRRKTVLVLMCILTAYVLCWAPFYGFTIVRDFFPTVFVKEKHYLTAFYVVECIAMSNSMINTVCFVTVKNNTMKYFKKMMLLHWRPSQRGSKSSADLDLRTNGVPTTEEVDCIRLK

B1: human type ZAQ ligand mature peptide (type G, 86 amino acid residues) (ligand)
peptide: AVITGACERDVQCGAGTCCAISLWLRGLRMCTPLGREGEECHPGSHKVPFFRKRKHHTCPCLPNLLCSRFPDGRYRCSMDLKNINF
notes: also called human type ZAQ ligand peptide; ZAQL-1
How did the “increase of the intracellular calcium ion concentration (FLIPR), EC50” value [1] turn out when B1 was run?
Its value is 0.096 nM.

What about the IC50 [2] of the same binder?
The IC50 was 0.093 nM.

What about the IC50 [3] of the same binder?
The IC50 was 0.035 nM.

B2: snake venom Mamba Intestinal Toxin 1 (MIT1) (ligand)
peptide: AVITGACERDLQCGKGTCCAVSLWIKSVRVCTPVGTSGEDCHPASHKIPFSGQRMHHTCPCAPNLACVQTSPKKFKCLSK
notes: also called snake venom MIT1; non-labeled MIT1
How did the IC50 [2] turn out when B2 was run?
Its IC50 is 0.032 nM.

And the IC50 [3]?
Its IC50 is 0.038 nM.
